The assay addresses tir_eco27 tir (UniProt B7UM99).

Sequence of Tyrosine-protein phosphatase non-receptor type 6 (Homo sapiens), P29350 C453S (P29350 whole entry C453S): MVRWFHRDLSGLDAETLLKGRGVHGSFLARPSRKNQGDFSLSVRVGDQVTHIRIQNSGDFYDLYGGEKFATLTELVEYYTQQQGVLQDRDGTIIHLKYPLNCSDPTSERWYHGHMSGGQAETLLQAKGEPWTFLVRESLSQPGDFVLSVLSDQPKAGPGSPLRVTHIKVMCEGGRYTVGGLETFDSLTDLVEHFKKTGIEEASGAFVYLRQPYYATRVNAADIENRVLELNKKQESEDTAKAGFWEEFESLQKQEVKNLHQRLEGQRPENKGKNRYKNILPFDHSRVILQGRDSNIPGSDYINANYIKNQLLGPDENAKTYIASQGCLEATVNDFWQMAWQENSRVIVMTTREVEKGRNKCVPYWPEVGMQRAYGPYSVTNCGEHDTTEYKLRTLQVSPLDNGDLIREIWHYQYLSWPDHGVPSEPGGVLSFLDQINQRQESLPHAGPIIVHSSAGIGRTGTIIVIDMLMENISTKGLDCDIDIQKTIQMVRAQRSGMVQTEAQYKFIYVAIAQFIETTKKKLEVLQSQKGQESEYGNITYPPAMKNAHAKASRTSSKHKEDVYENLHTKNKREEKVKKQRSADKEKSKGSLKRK
Sequence of tir_eco27 tir (B7UM99 whole entry): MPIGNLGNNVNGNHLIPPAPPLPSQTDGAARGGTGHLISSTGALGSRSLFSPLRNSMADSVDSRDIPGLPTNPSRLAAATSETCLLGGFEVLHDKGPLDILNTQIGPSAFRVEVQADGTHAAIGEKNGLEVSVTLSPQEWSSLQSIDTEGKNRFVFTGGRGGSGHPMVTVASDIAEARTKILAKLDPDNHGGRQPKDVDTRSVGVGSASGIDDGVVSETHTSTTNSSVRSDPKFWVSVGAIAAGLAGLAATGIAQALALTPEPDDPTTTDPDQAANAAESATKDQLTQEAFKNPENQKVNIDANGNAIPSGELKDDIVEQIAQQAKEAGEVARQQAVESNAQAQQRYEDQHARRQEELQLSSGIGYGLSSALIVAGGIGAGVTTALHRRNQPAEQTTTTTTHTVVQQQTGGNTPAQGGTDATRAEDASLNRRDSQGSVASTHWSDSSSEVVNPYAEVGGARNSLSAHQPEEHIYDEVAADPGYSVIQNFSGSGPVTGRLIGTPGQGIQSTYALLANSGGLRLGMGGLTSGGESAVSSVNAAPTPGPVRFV

Consider “Tyrosine-protein phosphatase non-receptor type 6 (Homo sapiens), P29350 C453S”, for which the “effect of a mutation on the interaction” value is on record as “decreasing interaction”.

Source of the values: IntAct's records for PubMed 23001144.
